This is an account of results in the Human Domainome abundance scans (Beltran et al. 2025).

The chains are these.
B1: SAM and SH3 domain-containing protein 1, residues 630 to 700; numbered along this chain, O94885 (parent)
chain: GRPPQPKSVEDLLDRINLKEHMPTFLFNGYEDLDTFKLLEEEDLDELNIRDPEHRAVLLTAVELLQEYDSN

± gives the uncertainty stated by the source.

In this data set the parent is B1. Description: abundance fitness (aPCA) (normalised: wild type 0, dead -1); higher = more abundant; growth selection in yeast, the domain comes from the species named. Particulars: Homo sapiens.
Turning to A56Y, the abundance fitness is -0.605 ± 0.054.

On to A56E, for which the abundance fitness was 0.085 ± 0.05.

On to A56N, for which the abundance fitness is -0.108 ± 0.04.

With A56K, the abundance fitness stood at 0.265 ± 0.038.

Regarding T60G, the abundance fitness stood at 0.071 ± 0.042.

As for L13F, the abundance fitness is -0.576 ± 0.071.

Regarding T35S, the abundance fitness is 0.104 ± 0.035.

T35L: the abundance fitness is -0.515 ± 0.047.

With T35W, the abundance fitness was -0.973 ± 0.12.

As to L59A, the abundance fitness was -0.569 ± 0.053.

For the variant L59N, the abundance fitness was -0.491 ± 0.063.

For the variant E67W, the abundance fitness was -0.438 ± 0.06.

Consider E67T, for which the abundance fitness is -0.048 ± 0.04.

On to H54K, for which the abundance fitness is -0.496 ± 0.078.

With H54L, the abundance fitness is -0.849 ± 0.055.

In the case of H54Q, the abundance fitness was 0.059 ± 0.048.

As to H54E, the abundance fitness was 0.13 ± 0.052.

In the case of P6V, the abundance fitness is -0.168 ± 0.044.

With P6C, the abundance fitness is -0.507 ± 0.071.

Turning to E10Q, the abundance fitness was -0.445 ± 0.066.

With N48T, the abundance fitness is -0.916 ± 0.2.

For the variant N48V, the abundance fitness is -1.21 ± 0.2.

As to P52R, the abundance fitness is -0.499 ± 0.041.

For the variant P52N, the abundance fitness was -0.569 ± 0.062.

P52C: the abundance fitness is -0.565 ± 0.064.

For the variant D32E, the abundance fitness was -0.275 ± 0.055.

Consider D32F, for which the abundance fitness is -0.803 ± 0.092.

As to D32I, the abundance fitness is -0.568 ± 0.079.

For D32H, the abundance fitness was -0.187 ± 0.048.

For D32S, the abundance fitness worked out at 0.094 ± 0.033.

Regarding E42N, the abundance fitness was -0.094 ± 0.046.

As for V62N, the abundance fitness is -0.578 ± 0.09.

As for V62I, the abundance fitness is -0.14 ± 0.052.

For F27H, the abundance fitness worked out at 0.246 ± 0.042.

In the case of F27K, the abundance fitness came out at 0.507 ± 0.04.

As for F27W, the abundance fitness is -0.449 ± 0.054.

With F27N, the abundance fitness was 0.418 ± 0.04.

For the variant L64C, the abundance fitness was 0.019 ± 0.044.

Turning to L64W, the abundance fitness was 0.148 ± 0.043.

G1V: the abundance fitness is -0.049 ± 0.051.

As for G1H, the abundance fitness was -0.161 ± 0.12.

Take L12E: the abundance fitness was -0.768 ± 0.084.

Take L38N: the abundance fitness was found to be 0.054 ± 0.053.

Regarding L38R, the abundance fitness is -0.041 ± 0.037.

On to F36N, for which the abundance fitness is -0.719 ± 0.091.

In the case of F36Q, the abundance fitness was -0.705 ± 0.11.

For P23R, the abundance fitness is -0.225 ± 0.045.

For P23T, the abundance fitness is -0.019 ± 0.04.

For the variant L65C, the abundance fitness was -0.538 ± 0.07.

As for L65Q, the abundance fitness was -0.707 ± 0.084.

Consider L65R, for which the abundance fitness is -0.82 ± 0.064.

In the case of L65D, the abundance fitness was -0.511 ± 0.09.

With K19R, the abundance fitness was -0.032 ± 0.035.

As to K19M, the abundance fitness was -0.058 ± 0.043.

Take K19L: the abundance fitness is 0.127 ± 0.031.

As for E63N, the abundance fitness is -0.066 ± 0.043.

With E63D, the abundance fitness was -0.058 ± 0.044.

In the case of E63M, the abundance fitness was -0.492 ± 0.063.

Consider L39R, for which the abundance fitness was -0.861 ± 0.059.

Take D51W: the abundance fitness was -0.862 ± 0.079.

With L44N, the abundance fitness was -0.822 ± 0.081.

For L44E, the abundance fitness was -0.757 ± 0.077.

On to L44W, for which the abundance fitness is -0.773 ± 0.085.

For L44P, the abundance fitness is -0.764 ± 0.073.

For the variant I49W, the abundance fitness is -0.823 ± 0.081.

Regarding I49S, the abundance fitness was -0.876 ± 0.052.

Consider I16V, for which the abundance fitness is -0.199 ± 0.052.

In the case of I16A, the abundance fitness is -0.424 ± 0.062.

For I16M, the abundance fitness is -0.325 ± 0.062.

Turning to D45N, the abundance fitness is -0.272 ± 0.045.

Take D45P: the abundance fitness is -0.833 ± 0.063.

In the case of L58R, the abundance fitness was -0.651 ± 0.056.

Regarding L58G, the abundance fitness is -0.667 ± 0.068.

Take L58I: the abundance fitness was 0.167 ± 0.048.

On to L58N, for which the abundance fitness is -0.51 ± 0.075.

N71E: the abundance fitness was found to be 0.163 ± 0.074.

For N71V, the abundance fitness was 0.035 ± 0.053.

As to R15A, the abundance fitness amounted to 0.055 ± 0.038.

Take R15S: the abundance fitness worked out at 0.116 ± 0.033.

R15C: the abundance fitness is -0.374 ± 0.059.

For R15I, the abundance fitness was -0.23 ± 0.051.

As to N28Q, the abundance fitness is -0.644 ± 0.077.

With N28C, the abundance fitness is -0.582 ± 0.065.

For the variant N28L, the abundance fitness is -0.855 ± 0.058.

Consider N28T, for which the abundance fitness is -0.831 ± 0.069.

Consider D11F, for which the abundance fitness is -0.925 ± 0.08.

On to D11C, for which the abundance fitness was -0.795 ± 0.079.

For D11G, the abundance fitness was -0.649 ± 0.08.

On to D11V, for which the abundance fitness was -0.852 ± 0.068.

D11H: the abundance fitness is -0.78 ± 0.067.

Regarding D11N, the abundance fitness was -0.605 ± 0.067.

On to H21V, for which the abundance fitness was -0.607 ± 0.056.

In the case of L33F, the abundance fitness is -0.697 ± 0.087.

For L33H, the abundance fitness is -0.791 ± 0.083.

In the case of L33C, the abundance fitness is -0.881 ± 0.11.

In the case of L33M, the abundance fitness was -0.64 ± 0.084.

As for R55S, the abundance fitness is -0.731 ± 0.06.

Turning to R55F, the abundance fitness is -0.864 ± 0.093.

Consider R55V, for which the abundance fitness is -0.591 ± 0.057.

In the case of E40G, the abundance fitness was found to be 0.171 ± 0.044.

In the case of E40W, the abundance fitness is -0.933 ± 0.098.

As to D43E, the abundance fitness is -0.503 ± 0.067.

Take E41N: the abundance fitness is -0.408 ± 0.061.

As to E41G, the abundance fitness is -0.465 ± 0.07.

A61R: the abundance fitness is -0.904 ± 0.07.

Take A61H: the abundance fitness was -0.497 ± 0.066.

Take A61F: the abundance fitness was -0.759 ± 0.094.

With A61C, the abundance fitness was -0.483 ± 0.073.

On to L18C, for which the abundance fitness was -0.523 ± 0.066.

For the variant P3M, the abundance fitness was 0.008 ± 0.049.

As for P3F, the abundance fitness was determined as 0.044 ± 0.048.

For the variant P3N, the abundance fitness was -0.038 ± 0.049.

With E53V, the abundance fitness is -0.283 ± 0.046.

On to E53A, for which the abundance fitness was -0.089 ± 0.041.

L47W: the abundance fitness is -0.959 ± 0.092.

With R2M, the abundance fitness was -0.442 ± 0.06.

R2T: the abundance fitness is -0.239 ± 0.048.

With R2S, the abundance fitness was -0.446 ± 0.056.

With R2K, the abundance fitness is -0.212 ± 0.05.

As to Q5H, the abundance fitness is -0.033 ± 0.055.

For Q5N, the abundance fitness was -0.113 ± 0.055.

Turning to E20A, the abundance fitness was -0.699 ± 0.084.

Take E20V: the abundance fitness was -0.203 ± 0.054.

As for E31K, the abundance fitness worked out at 0.124 ± 0.045.

With E31N, the abundance fitness came to 0.171 ± 0.04.

Take V57P: the abundance fitness was -0.484 ± 0.055.

As to V57S, the abundance fitness is 0.243 ± 0.034.

Take V57E: the abundance fitness came to 0.196 ± 0.049.

D14C: the abundance fitness is -0.215 ± 0.054.

With D14N, the abundance fitness is -0.131 ± 0.048.

D14G: the abundance fitness is -0.218 ± 0.055.

Regarding G29Q, the abundance fitness is -0.959 ± 0.093.

On to G29D, for which the abundance fitness was -0.837 ± 0.1.

As to G29M, the abundance fitness was -0.739 ± 0.089.

Regarding G29K, the abundance fitness is -0.925 ± 0.11.

For the variant N17A, the abundance fitness is -0.349 ± 0.046.

In the case of N17F, the abundance fitness is -0.726 ± 0.085.

For N17Q, the abundance fitness was -0.289 ± 0.053.

As for N17I, the abundance fitness was -0.851 ± 0.086.

N17Y: the abundance fitness is -0.904 ± 0.086.

Consider K37D, for which the abundance fitness is -0.791 ± 0.1.

For K37L, the abundance fitness is -0.555 ± 0.053.

As for F25G, the abundance fitness was -0.882 ± 0.076.

For F25E, the abundance fitness is -0.623 ± 0.094.

As for F25S, the abundance fitness is -0.706 ± 0.056.

For the variant F25V, the abundance fitness is -0.758 ± 0.063.

Take F25Y: the abundance fitness was -0.893 ± 0.091.

For the variant D34H, the abundance fitness was -0.426 ± 0.049.

In the case of T24M, the abundance fitness was -0.379 ± 0.056.

For T24K, the abundance fitness is -0.079 ± 0.046.

As to D69G, the abundance fitness was -0.132 ± 0.056.

Consider D69T, for which the abundance fitness was -0.358 ± 0.045.

For the variant D69H, the abundance fitness was -0.327 ± 0.056.

In the case of S8C, the abundance fitness was -0.701 ± 0.087.

For the variant S8D, the abundance fitness was -0.316 ± 0.076.

As to S8Y, the abundance fitness was -0.899 ± 0.085.

Regarding V9Y, the abundance fitness is -0.883 ± 0.087.

With V9P, the abundance fitness was -0.632 ± 0.063.

For P4F, the abundance fitness stood at 0.2 ± 0.05.

With P4D, the abundance fitness stood at 0.343 ± 0.055.

For L26S, the abundance fitness is -0.337 ± 0.045.

Take L26K: the abundance fitness was 0.034 ± 0.044.

With L26Q, the abundance fitness is -0.11 ± 0.049.

In the case of L26G, the abundance fitness is -0.697 ± 0.06.

With M22Y, the abundance fitness was determined as 0.277 ± 0.038.

On to K7N, for which the abundance fitness is -0.142 ± 0.041.

Take K7M: the abundance fitness is -0.309 ± 0.066.
